Results: the supplement of paper PMC6755084

B1: minF1; the commonest letter at each place (parent)
chain: GAGACCGCAACTGAAAAGTTGTTATCAGAAATGGATGGGTTGAATTTCTGCACGTAGAAGCAAAAGGC

Variants of: B1
Test: fraction ligated after 30 min (ligated reads / total reads); higher = more ligase activity
Details: with F1*subA RNA substrate (template-directed ligation), 42 °C
Summary of the method: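 Templates from an oligo pool encoding minimized ligase ribozyme variants were amplified by PCR, transcribed with T7, and purified on gels. Gel electrophoresis separated ligated from unligated RNAs, which were then reverse transcribed using barcoded primers and sequenced on a MiSeq, keeping core bases with quality ≥30. For each variant, fraction ligated equals ligated reads divided by total reads.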

Row | Variant | fraction ligated
1 | GAGACCGCAACTGAAAAGTTGTTGTCAGACATGGATGGGTTGAATTTCTGCACGTAGAAGCAAAAGGC | 0.0534
2 | GAGACCGCAACTGAAAAGTTGTTGTCAGATATGGATGGGTTGAATTTCTGCACGTAGAAGCAAAAGGC | 0.058
3 | GAGACCGCAACTGAAAAGTTGTTGTCAGAGATGGATGGGTTGAATTTCTGCACGTAGAAGCAAAAGGC | 0.185
4 | GAGACCGCAACTGAAAAGTTGTGATCAGAAATGGATTGGTTGAATTTCTGCACGTAGAAGCAAAAGGC | 0.00959
5 | GAGACCGCAACTGAAAAGTTGTGATCAGAAATGGATCGGTTGAATTTCTGCACGTAGAAGCAAAAGGC | 0.00547
6 | GAGACCGCAACTGAAAAGTTGTGATCAGAAATGGATAGGTTGAATTTCTGCACGTAGAAGCAAAAGGC | 0.00471
7 | GAGACCGCAACTGAAAAGTTGTTCTCAGAAATGGATGGGTTTAATTTCTGCACGTAGAAGCAAAAGGC | 0.00251
8 | GAGACCGCAACTGAAAAGTTGTTCTCAGAAATGGATGGGTTAAATTTCTGCACGTAGAAGCAAAAGGC | 0.00275
9 | GAGACCGCAACTGAAAAGTTGTTCTCAGAAATGGATGGGTTCAATTTCTGCACGTAGAAGCAAAAGGC | 0.000786
10 | GAGACCGCAACTGAAAAGTTGTTCTCAGAAATGGATCGGTTGAATTTCTGCACGTAGAAGCAAAAGGC | 0.00569
11 | GAGACCGCAACTGAAAAGTTGTTCTCAGAAATGGATAGGTTGAATTTCTGCACGTAGAAGCAAAAGGC | 0.00687
12 | GAGACCGCAACTGAAAAGTTGTTCTCAGAAATGGATTGGTTGAATTTCTGCACGTAGAAGCAAAAGGC | 0.00693
13 | GAGACCGCAACTGAAAAGTTGTTCTCAGGAATGGATGGGTTGAATTTCTGCACGTAGAAGCAAAAGGC | 0.0302
14 | GAGACCGCAACTGAAAAGTTGTTCTCAGTAATGGATGGGTTGAATTTCTGCACGTAGAAGCAAAAGGC | 0.0449
15 | GAGACCGCAACTGAAAAGTTGTTCTCAGCAATGGATGGGTTGAATTTCTGCACGTAGAAGCAAAAGGC | 0.0282
16 | GAGACCGCAACTGAAAAGTTGTTGTCAGTAATGGATGGGTTGAATTTCTGCACGTAGAAGCAAAAGGC | 0.116
17 | GAGACCGCAACTGAAAAGTTGTTGTCAGGAATGGATGGGTTGAATTTCTGCACGTAGAAGCAAAAGGC | 0.0952
18 | GAGACCGCAACTGAAAAGTTGTTGTCAGCAATGGATGGGTTGAATTTCTGCACGTAGAAGCAAAAGGC | 0.0668
19 | GAGACCGCAACTGAAAAGTTGTTCTCAGAAATGGACGGGTTGAATTTCTGCACGTAGAAGCAAAAGGC | 0.0109
20 | GAGACCGCAACTGAAAAGTTGTTCTCAGAAATGGAGGGGTTGAATTTCTGCACGTAGAAGCAAAAGGC | 0.438

Row | Variant | fraction ligated
21 | GAGACCGCAACTGAAAAGTTGTTCTCAGAAATGGAAGGGTTGAATTTCTGCACGTAGAAGCAAAAGGC | 0.0726
22 | GAGACCGCAACTGAAAAGTTGTGATCAGAAATGGATGGGTTTAATTTCTGCACGTAGAAGCAAAAGGC | 0.0401
23 | GAGACCGCAACTGAAAAGTTGTGATCAGAAATGGATGGGTTCAATTTCTGCACGTAGAAGCAAAAGGC | 0.00862
24 | GAGACCGCAACTGAAAAGTTGTGATCAGAAATGGATGGGTTAAATTTCTGCACGTAGAAGCAAAAGGC | 0.204
25 | GAGACCGCAACTGAAAAGTTGTGACCAGAAATGGATGGGTTGAATTTCTGCACGTAGAAGCAAAAGGC | 0.153
26 | GAGACCGCAACTGAAAAGTTGTGAGCAGAAATGGATGGGTTGAATTTCTGCACGTAGAAGCAAAAGGC | 0.193
27 | GAGACCGCAACTGAAAAGTTGTGAACAGAAATGGATGGGTTGAATTTCTGCACGTAGAAGCAAAAGGC | 0.0923
28 | GAGACCGCAACTGAAAAGTTGTTCTTAGAAATGGATGGGTTGAATTTCTGCACGTAGAAGCAAAAGGC | 0.0975
29 | GAGACCGCAACTGAAAAGTTGTTCTAAGAAATGGATGGGTTGAATTTCTGCACGTAGAAGCAAAAGGC | 0.0482
30 | GAGACCGCAACTGAAAAGTTGTTCTGAGAAATGGATGGGTTGAATTTCTGCACGTAGAAGCAAAAGGC | 0.032
31 | GAGACCGCAACTGAAAAGTTGTTCTCAGAAATGGATGGGTTGATTTTCTGCACGTAGAAGCAAAAGGC | 0.0123
32 | GAGACCGCAACTGAAAAGTTGTTCTCAGAAATGGATGGGTTGAGTTTCTGCACGTAGAAGCAAAAGGC | 0.00645
33 | GAGACCGCAACTGAAAAGTTGTTCTCAGAAATGGATGGGTTGACTTTCTGCACGTAGAAGCAAAAGGC | 0.00359
34 | GAGACCGCAACTGAAAAGTTGTTCTCAGACATGGATGGGTTGAATTTCTGCACGTAGAAGCAAAAGGC | 0.034
35 | GAGACCGCAACTGAAAAGTTGTTCTCAGAGATGGATGGGTTGAATTTCTGCACGTAGAAGCAAAAGGC | 0.0241
36 | GAGACCGCAACTGAAAAGTTGTTCTCAGATATGGATGGGTTGAATTTCTGCACGTAGAAGCAAAAGGC | 0.0451
37 | GAGACCGCAACTGAAAAGTTGTGATCAGAAAAGGATGGGTTGAATTTCTGCACGTAGAAGCAAAAGGC | 0.084
38 | GAGACCGCAACTGAAAAGTTGTGATCAGAAAGGGATGGGTTGAATTTCTGCACGTAGAAGCAAAAGGC | 0.0266
39 | GAGACCGCAACTGAAAAGTTGTGATCAGAAACGGATGGGTTGAATTTCTGCACGTAGAAGCAAAAGGC | 0.00942
